# Data from publication PMC6120983, “Chimeric Proteins Containing MAP-1 and Functional Domains of C4b-Binding Protein Reveal Strong Complement Inhibitory Capacities” (Frontiers in Immunology, 2018).
# Read-outs that look alike come from different tables or passages of the source.
# B1: C4BP^1−5:MAP-1 (other)
# chain: NCGPPPTLSFAAPMDITLTETRFKTGTTLKYTCLPGYVRSHSTQTLTCNSDGEWVYNTFCIYKRCRHPGELRNGQVEIKTDLSFGSQIEFSCSEGFFLIGSTTSRCEVQDRGVGWSHPLPQCEIVKCKPPPDIRNGRHSGEENFYAYGFSVTYSCDPRFSLLGHASISCTVENETIGVWRPSPPTCEKITCRKPDVSHGEMVSGFGPIYNYKDTIVFKCQKGFVLRGSSVIHCDADSKWNPSPPACEPNSCINLPDIPHASWETYPRPTKEDVYVVGTVLRYRCHPGYKPTTDEPTTVICQKNLRWTPYQGCEAHTVELNNMFGQIQSPGYPDSYPSDSEVTWNITVPDGFRIKLYFMHFNLESSYLCEYDYVKVETEDQVLATFCGRETTDTEQTPGQEVVLSPGSFMSITFRSDFSNEERFTGFDAHYMAVDVDECKEREDEELSCDHYCHNYIGGYYCSCRFGYILHTDNRTCRVECSDNLFTQRTGVITSPDFPNPYPKSSECLYTIELEEGFMVNLQFEDIFDIEDHPEVPCPYDYIKIKVGPKVLGPFCGEKAPEPISTQSHSVLILFHSDNSGENRGWRLSYRAAGNECPELQPPVHGKIEPSQAKYFFKDQVLVSCDTGYKVLKDNVEMDTFQIECLKDGTWSNKIPTCKKNEIDLESELKSEQVTE
# Key:
# recombinant MBL [1] = target: T1, recombinant MBL (UniProt P11226 21-248)
# T1 sequence (P11226 21-248): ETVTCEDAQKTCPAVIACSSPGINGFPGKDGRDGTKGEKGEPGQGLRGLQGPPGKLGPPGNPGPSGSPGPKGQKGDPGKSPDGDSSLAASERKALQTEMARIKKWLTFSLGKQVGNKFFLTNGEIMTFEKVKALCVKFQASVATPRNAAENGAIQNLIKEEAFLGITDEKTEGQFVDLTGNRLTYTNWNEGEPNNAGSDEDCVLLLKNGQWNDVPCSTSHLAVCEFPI
# MAP-1:C4BP^1−5 (human) = MAP-1:C4BP^1−5 (human) (UniProt P48740); experiment: SEC; 50 μg on Superdex 200 HR 10/30, 0.5 ml/min, TBS/Ca^2+ (5 mM CaCl2); fractions checked by sandwich ELISA (anti-C4BP capture, anti-MAP-1 detection)
# recombinant CL-11 = target: T2, recombinant CL-11 (UniProt Q9BWP8 26-271); experiment: ELISA; rMBL or rCL-11 (2 μg/ml) held on mannan-coated wells; serial dilutions of the proteins from 13.5 nM in TBS/Tween/Ca^2+ (5 mM CaCl2), 2 h; detected with biotinylated anti-MASP-1/-3/MAP-1 mAb 8B3; Kd = concentration at half of the maximum binding, fit specific binding with Hill slope, Bmax shared
# T2 construct: collectin-11 (CL-11, CL-K1); Held on mannan-coated wells in the ELISA; also called rCL-11; collectin-11; source: produced in house
# T2 sequence (Q9BWP8 26-271): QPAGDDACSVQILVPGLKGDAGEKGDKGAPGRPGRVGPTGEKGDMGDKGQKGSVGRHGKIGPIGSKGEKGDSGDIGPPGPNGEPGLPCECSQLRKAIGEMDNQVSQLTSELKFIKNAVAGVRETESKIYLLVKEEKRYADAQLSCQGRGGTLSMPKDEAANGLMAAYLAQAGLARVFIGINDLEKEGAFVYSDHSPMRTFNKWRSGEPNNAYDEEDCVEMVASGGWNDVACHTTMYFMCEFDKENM
# recombinant MBL [2] = target: T1, recombinant MBL; experiment: as above
# recombinant MBL [3] = target: T1, recombinant MBL; experiment: cell-based or functional assay
# C4BP^1−5:MAP-1 = target: B1; experiment: SEC; 50 μg on Superdex 200 HR 10/30, 0.5 ml/min, TBS/Ca^2+ (5 mM CaCl2); fractions checked by sandwich ELISA (anti-C4BP capture, anti-MAP-1 detection); conditions: both partners purified
molecule,measurement,setting,value
MAP-1:C4BP^1−5 (from UniProt P48740-3 20-380),"IC50 of C3 deposition (ELISA; inhibitor pre-incubated on mannan-bound rMBL, then 2% MBL defect serum)",recombinant MBL [1],0.36 nM
same,"IC50 of C4 deposition (ELISA; inhibitor pre-incubated on mannan-bound rMBL, then 2% MBL defect serum)",recombinant MBL [1],0.45 nM
same,"IC50 of TCC deposition (ELISA; inhibitor pre-incubated on mannan-bound rMBL, then 2% MBL defect serum)",recombinant MBL [1],0.17 nM
same,stoichiometry N,MAP-1:C4BP^1−5 (human),2
same,Kd,recombinant CL-11,1.97 nM
same,Kd,recombinant MBL [2],0.35 nM
B1,"IC50 of C3 deposition (ELISA; inhibitor pre-incubated on mannan-bound rMBL, then 2% MBL defect serum)",recombinant MBL [3],7.72 nM
same,"IC50 of C4 deposition (ELISA; inhibitor pre-incubated on mannan-bound rMBL, then 2% MBL defect serum)",recombinant MBL [3],1.2 nM
same,"IC50 of TCC deposition (ELISA; inhibitor pre-incubated on mannan-bound rMBL, then 2% MBL defect serum)",recombinant MBL [3],0.92 nM
same,Kd,recombinant MBL [2]; both partners purified,0.56 nM
"C4BP^1−5:MAP-1 (other, (Gly4Ser)3 linker between C4BP CCP1-5 and MAP-1 left out of the pieces; CCP1-5 limits from Sushi 1-5 features; MAP-1 (MAp44, NM_001031849.2) is the 380-aa MASP1 isoform, signal peptide 1-19 removed …) NCGPPPTLSFAAPMDITLTETRFKTGTTLKYTCLPGYVRSHSTQTLTCNSDGEWVYNTFCIYKRCRHPGELRNGQVEIKTDLSFGSQIEFSCSEGFFLIGSTTSRCEVQDRGVGWSHPLPQCEIVKCKPPPDIRNGRHSGEENFYAYGFSVTYSCDPRFSLLGHASISCTVENETIGVWRPSPPTCEKITCRKPDVSHGEMVSGFGPIYNYKDTIVFKCQKGFVLRGSSVIHCDADSKWNPSPPACEPNSCINLPDIPHASWETYPRPTKEDVYVVGTVLRYRCHPGYKPTTDEPTTVICQKNLRWTPYQGCEAHTVELNNMFGQIQSPGYPDSYPSDSEVTWNITVPDGFRIKLYFMHFNLESSYLCEYDYVKVETEDQVLATFCGRETTDTEQTPGQEVVLSPGSFMSITFRSDFSNEERFTGFDAHYMAVDVDECKEREDEELSCDHYCHNYIGGYYCSCRFGYILHTDNRTCRVECSDNLFTQRTGVITSPDFPNPYPKSSECLYTIELEEGFMVNLQFEDIFDIEDHPEVPCPYDYIKIKVGPKVLGPFCGEKAPEPISTQSHSVLILFHSDNSGENRGWRLSYRAAGNECPELQPPVHGKIEPSQAKYFFKDQVLVSCDTGYKVLKDNVEMDTFQIECLKDGTWSNKIPTCKKNEIDLESELKSEQVTE",stoichiometry N,C4BP^1−5:MAP-1,2
same,Kd,recombinant CL-11; both partners purified,5.49 nM
"recombinant MAP-1 (natural protein, human, UniProt P48740-3 20-380, looked up) HTVELNNMFGQIQSPGYPDSYPSDSEVTWNITVPDGFRIKLYFMHFNLESSYLCEYDYVKVETEDQVLATFCGRETTDTEQTPGQEVVLSPGSFMSITFRSDFSNEERFTGFDAHYMAVDVDECKEREDEELSCDHYCHNYIGGYYCSCRFGYILHTDNRTCRVECSDNLFTQRTGVITSPDFPNPYPKSSECLYTIELEEGFMVNLQFEDIFDIEDHPEVPCPYDYIKIKVGPKVLGPFCGEKAPEPISTQSHSVLILFHSDNSGENRGWRLSYRAAGNECPELQPPVHGKIEPSQAKYFFKDQVLVSCDTGYKVLKDNVEMDTFQIECLKDGTWSNKIPTCKKNEIDLESELKSEQVTE","IC50 of C3 deposition (ELISA; inhibitor pre-incubated on mannan-bound rMBL, then 2% MBL defect serum)",recombinant MBL [3],3.35 nM
same,"IC50 of C4 deposition (ELISA; inhibitor pre-incubated on mannan-bound rMBL, then 2% MBL defect serum)",recombinant MBL [3],0.14 nM
same,"IC50 of TCC deposition (ELISA; inhibitor pre-incubated on mannan-bound rMBL, then 2% MBL defect serum)",recombinant MBL [3],0.46 nM
